In PMC6991139 (ACS nano, 2019):

Key:
[1] = molecular target: ZZ-PP7 particle (ZZ-domains added to the N-terminus of the PP7 CP) (PP7 virus (Leviviridae)); assay: cryo-EM structure
[2] = molecular target: PP7-PP7 single-chain coat protein dimer particle (PP7 virus (Leviviridae)) (UniProt P03630); assay: cryo-EM structure
[3] = molecular target: PP7-ZZ particle (ZZ-domains fused to the C-terminus of the PP7 CP) (PP7 virus (Leviviridae)); assay: SEC + other: dynamic light scattering + other: TEM
[4] = molecular target: the molecule itself; assay: SEC + other: dynamic light scattering + other: TEM

Molecule: ZZ-PP7 particle (ZZ-domains added to the N-terminus of the PP7 CP)
- stoichiometry N [1]: 180 per capsid

Molecule: PP7-PP7 single-chain coat protein dimer particle (from UniProt P03630 1-128; P03630 1-128)
- stoichiometry N [2]: 120 copies

Molecule: PP7-ZZ particle (ZZ-domains fused to the C-terminus of the PP7 CP)
- stoichiometry N [3]: 180 per capsid

B1: wild-type PP7 virus-like particle (PP7 coat protein) (natural protein)
chain: MSKTIVLSVGEATRTLTEIQSTADRQIFEEKVGPLVGRLRLTASLRQNGAKTAYRVNLKLDQADVVDCSTSVCGELPKVRYTQVWSHDVTIVANSTEASRKSLYDLTKSLVATSQVEDLVVNLVPLGR
- binding result [4]: binds
